Residue numbers refer to the chain shown, from its start. Names may count otherwise. Where two headings read alike, the source gives them in different places. Values belong to the binder of their own block, whether it stands above or below them.
What was measured:
[1] = molecular target: T1, non-isoprenylated RAC1 full-length (RAC1^FL) (human, UniProt P63000 1-192); test: stopped-flow
[2] = molecular target: T1, non-isoprenylated RAC1 full-length …; test: FP; mdGDP-bound RAC1
[3] = molecular target: T1, non-isoprenylated RAC1 full-length …; test: kinetic, koff/kon
[4] = molecular target: T1, non-isoprenylated RAC1 full-length …; test: FP
[5] = molecular target: T1, non-isoprenylated RAC1 full-length …; test: stopped-flow; remark: listed apart in the source
[6] = molecular target: T1, non-isoprenylated RAC1 full-length …; test: kinetic, koff/kon; remark: listed apart in the source

B2: GDI1^ΔC6 (domain or fragment)
chain: MAEQEPTAEQLAQIAAENEEDEHSVNYKPPAQKSIQEIQELDKDDESLRKYKEALLGRVAVSADPNVPNVVVTGLTLVCSSAPGPLELDLTGDLESFKKQSFVLKEGVEYRIKISFRVNREIVSGMKYIQHTYRKGVKIDKTDYMVGSYGPRAEEYEFLTPVEEAPKGMLARGSYSIKSRFTDDDKTDHLSWEWNLTI
koff [1]: 0.59 s⁻¹
Kd [2]: 29 µM
Kd [3]: 21.7 µM

B3: GDI1^E121K (natural protein)
chain: MAEQEPTAEQLAQIAAENEEDEHSVNYKPPAQKSIQEIQELDKDDESLRKYKEALLGRVAVSADPNVPNVVVTGLTLVCSSAPGPLELDLTGDLESFKKQSFVLKEGVEYRIKISFRVNRKIVSGMKYIQHTYRKGVKIDKTDYMVGSYGPRAEEYEFLTPVEEAPKGMLARGSYSIKSRFTDDDKTDHLSWEWNLTIKKDWKD
Kd [2]: 14 µM

B4: GDI1^2E>2K (E163K and E164K) (natural protein)
chain: B3 chain with K121E, E163K, E164K
Kd [2]: 117 µM

B6: GDI1^ΔN25 (domain or fragment)
chain: NYKPPAQKSIQEIQELDKDDESLRKYKEALLGRVAVSADPNVPNVVVTGLTLVCSSAPGPLELDLTGDLESFKKQSFVLKEGVEYRIKISFRVNREIVSGMKYIQHTYRKGVKIDKTDYMVGSYGPRAEEYEFLTPVEEAPKGMLARGSYSIKSRFTDDDKTDHLSWEWNLTIKKDWKD
Kd [2]: 174 µM

Further lines, results first:

koff [1]: 0.54 s⁻¹
Kd [2]: 102 µM
Kd [3]: 16.8 µM
B1: GDI1^ΔN15 (domain or fragment)
chain: AENEEDEHSVNYKPPAQKSIQEIQELDKDDESLRKYKEALLGRVAVSADPNVPNVVVTGLTLVCSSAPGPLELDLTGDLESFKKQSFVLKEGVEYRIKISFRVNREIVSGMKYIQHTYRKGVKIDKTDYMVGSYGPRAEEYEFLTPVEEAPKGMLARGSYSIKSRFTDDDKTDHLSWEWNLTIKKDWKD

Kd [4]: 0.96 µM
koff [5]: 0.34 s⁻¹
Kd [2]: 1.2 µM
Kd [6]: 1.03 µM
B5: GDI1 (RHOGDI1), wild type (natural protein)
chain: B3 chain with K121E

Reference: publication PMC8622166 (2021)
